In IntAct's records for PubMed 25766235:

B1: Regulator of G-protein signaling 2 (Homo sapiens), P41220-1 (parent)
chain: MQSAMFLAVQHDCRPMDKSAGSGHKSEEKREKMKRTLLKDWKTRLSYFLQNSSTPGKPKTGKKSKQQAFIKPSPEEAQLWSEAFDELLASKYGLAAFRAFLKSEFCEENIEFWLACEDFKKTKSPQKLSSKARKIYTDFIEKEAPKEINIDFQTKTLIAQNIQEATSGCFTTAQKRVYSLMENNSYPRFLESEFYQDLCKKPQITTEPHAT
partner: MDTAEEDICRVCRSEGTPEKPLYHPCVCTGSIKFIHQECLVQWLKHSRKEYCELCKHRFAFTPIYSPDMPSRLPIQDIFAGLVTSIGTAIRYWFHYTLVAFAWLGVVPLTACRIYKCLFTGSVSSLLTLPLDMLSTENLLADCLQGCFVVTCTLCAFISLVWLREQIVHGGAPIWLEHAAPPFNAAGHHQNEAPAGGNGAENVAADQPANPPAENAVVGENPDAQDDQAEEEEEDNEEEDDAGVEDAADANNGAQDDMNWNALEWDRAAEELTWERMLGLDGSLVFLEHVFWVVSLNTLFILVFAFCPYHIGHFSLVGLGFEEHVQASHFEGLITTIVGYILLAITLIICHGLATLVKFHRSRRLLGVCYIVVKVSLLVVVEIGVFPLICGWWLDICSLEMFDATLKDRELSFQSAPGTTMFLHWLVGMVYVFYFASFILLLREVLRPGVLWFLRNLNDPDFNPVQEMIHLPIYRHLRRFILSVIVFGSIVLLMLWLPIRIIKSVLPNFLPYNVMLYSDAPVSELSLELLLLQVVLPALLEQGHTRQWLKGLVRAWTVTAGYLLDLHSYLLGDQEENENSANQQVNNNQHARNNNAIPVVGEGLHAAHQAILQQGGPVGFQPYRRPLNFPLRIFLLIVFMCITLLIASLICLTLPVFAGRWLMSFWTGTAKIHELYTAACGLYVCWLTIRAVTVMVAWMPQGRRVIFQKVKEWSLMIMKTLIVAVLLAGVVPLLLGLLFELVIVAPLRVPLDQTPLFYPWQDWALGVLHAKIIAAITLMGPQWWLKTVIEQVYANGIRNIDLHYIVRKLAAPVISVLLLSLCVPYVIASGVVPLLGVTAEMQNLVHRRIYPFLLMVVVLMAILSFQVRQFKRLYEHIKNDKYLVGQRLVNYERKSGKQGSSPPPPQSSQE

Variants of: B1
Details: with marh6_human MARCHF6, O60337

Row | effect of a mutation on the interaction | Variant
1 | disrupting interaction strength | M1P
